In the assay the target is T1, CBP-CWC22-S (residues 100-665) (human, UniProt Q9HCG8 100-665).
T1 sequence (looked up): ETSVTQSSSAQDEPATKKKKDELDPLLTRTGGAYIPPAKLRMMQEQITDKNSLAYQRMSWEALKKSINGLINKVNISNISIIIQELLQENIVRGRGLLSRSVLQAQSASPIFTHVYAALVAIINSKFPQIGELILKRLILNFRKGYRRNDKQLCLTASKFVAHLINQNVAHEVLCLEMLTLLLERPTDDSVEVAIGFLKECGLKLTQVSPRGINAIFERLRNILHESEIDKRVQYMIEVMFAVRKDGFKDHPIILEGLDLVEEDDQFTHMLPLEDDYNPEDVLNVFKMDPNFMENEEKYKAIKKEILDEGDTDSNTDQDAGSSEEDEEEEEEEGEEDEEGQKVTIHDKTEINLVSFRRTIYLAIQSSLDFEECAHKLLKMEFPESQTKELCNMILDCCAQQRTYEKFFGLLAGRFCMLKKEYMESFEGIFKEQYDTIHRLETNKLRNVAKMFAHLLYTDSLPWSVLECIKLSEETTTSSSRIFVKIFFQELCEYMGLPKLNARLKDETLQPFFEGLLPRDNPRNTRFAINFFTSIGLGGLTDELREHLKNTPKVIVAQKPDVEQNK
Description: pull-down.

B1: CWC27-C (354-472) (domain or fragment, human, UniProt Q6UX04 354-472, looked up)
chain: DGAVAEYRREKQKYEALRKQQSKKGTSREDQTLALLNQFKSKLTQAIAETPENDIPETEVEDDEGWMSHVLQFEDKSRKVKDASMQDSDTFEIYDPRNPVNKRRREESKKLMREKKERR
Turning to B1, the binding result is reported as “binds”.

B2: PTS-CWC27 (1-472) (natural protein, human, UniProt Q6UX04 1-472, looked up)
chain: MSNIYIQEPPTNGKVLLKTTAGDIDIELWSKEAPKACRNFIQLCLEAYYDNTIFHRVVPGFIVQGGDPTGTGSGGESIYGAPFKDEFHSRLRFNRRGLVAMANAGSHDNGSQFFFTLGRADELNNKHTIFGKVTGDTVYNMLRLSEVDIDDDERPHNPHKIKSCEVLFNPFDDIIPREIKRLKKEKPEEEVKKLKPKGTKNFSLLSFGEEAEEEEEEVNRVSQSMKGKSKSSHDLLKDDPHLSSVPVVESEKGDAPDLVDDGEDESAEHDEYIDGDEKNLMRERIAKKLKKDTSANVKSAGEGEVEKKSVSRSEELRKEARQLKRELLAAKQKKVENAAKQAEKRSEEEEAPPDGAVAEYRREKQKYEALRKQQSKKGTSREDQTLALLNQFKSKLTQAIAETPENDIPETEVEDDEGWMSHVLQFEDKSRKVKDASMQDSDTFEIYDPRNPVNKRRREESKKLMREKKERR
As for B2, the binding result was “binds”.

The values are drawn from PMC7261170 (Nucleic Acids Research, 2020).
